Cell-associated 125I-leptin in BPRCL mouse liver cells after pre-incubation with increasing AdipoQ (AQ) or globular AdipoQ (AQ-GH) data for one substance are collected here from patent US20060252678A1.

This assay addresses mouse LSR (lipolysis stimulated receptor) (mouse) (UniProt Q99KG5). Put plainly: cell-based or functional assay.
Chain of UniProt Q99KG5 (Q99KG5 36-594): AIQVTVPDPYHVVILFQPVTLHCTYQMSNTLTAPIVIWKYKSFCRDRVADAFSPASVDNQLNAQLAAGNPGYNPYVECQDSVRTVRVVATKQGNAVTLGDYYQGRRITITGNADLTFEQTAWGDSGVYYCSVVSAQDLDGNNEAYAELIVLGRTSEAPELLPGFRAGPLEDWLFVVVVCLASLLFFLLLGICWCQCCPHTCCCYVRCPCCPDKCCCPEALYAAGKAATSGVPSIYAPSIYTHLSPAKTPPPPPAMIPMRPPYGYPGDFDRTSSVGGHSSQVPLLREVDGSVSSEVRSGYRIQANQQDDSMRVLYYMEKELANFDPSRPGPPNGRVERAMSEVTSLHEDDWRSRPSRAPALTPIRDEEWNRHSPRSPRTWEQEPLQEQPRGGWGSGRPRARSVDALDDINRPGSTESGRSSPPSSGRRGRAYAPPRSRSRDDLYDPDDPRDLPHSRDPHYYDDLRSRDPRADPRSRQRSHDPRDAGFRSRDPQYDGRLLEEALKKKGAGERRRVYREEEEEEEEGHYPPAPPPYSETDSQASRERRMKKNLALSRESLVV

In the case of “125I-mouse leptin (from UniProt P41160 22-167) (ligand)”, the cell-associated 125I-leptin in BPRCL mouse liver cells after pre-incubation with increasing AdipoQ (AQ) or globular AdipoQ (AQ-GH) was over 30%.
